Assay: soluble on expression in E. coli; label from the status in PepcDB or PDB records

Sequence	soluble on expression in E. coli
MEANMKKVIGAATATVFGLGAFTTTATAETIVTADVLNVREKPTTESKVVEKVKNGQELKVINTEDGWSKIELNGKEVFVSSEFTKDVYHVTANLLNVRTEANTDSEILGRLKKDDVIESTHQVKDGWLQFEYKGKTAYANVSFLSSTAPTEKKTEEKTKQVAKVQKSVKEKKEVKTQKVAKAKETTKAQEIVKPKEEAKVVKVKEEEKAQEIVKPKEEAKIKEEVKVKEEVKVKEEEKAQEIAKAKEEAKIKEEVKVKEEEKAQEIVKAKEEVKAKEEEKAQEIVKAKEEVKVKEEVKAKEIAKAKEEEKAREIAKAKEEEKAKEIAKAKEEEKAREIAKAKEEEKAREIAKAKEEEKAREIAKAKEEEKAREIAKAKEEERAKEASKNNIQSAKRELTVVATAYTADPSENGTYGGRVLTAMGHDLTANPNMRIIAVDPKVIPLGSKVWVEGYGEAIAGDTGSAIKGNRIDVLMGSKSKAMNWGRQTVKVKILLEHHHHHH	not soluble
MRLKDLGERALLARLAPLGYPPEAPLPPGDDAGGVWAEGRAWLLKTDGFLYREVALKGMGPFEVGFRGVAATASDLLAKMGRPLGFTLGLFLPEDLEEGFVLELVRGAAEAAKRLGAFLLGGDTNRGVEVALTVSGYALAEAPLPRKALPGDLLYLAGDRWGRTGAAIRAHYEGRSLEGFPKIREAAFYPLPRLELLALSGLLRGSLDSSDGLAETLWQLADLGVGVEVEALPLYPDVLAFAGSEEAALELVLYGGEEFEAVLVVPQEGAAAVEARAKAKGLPLFRAGRVVAGEGVYLRGAPLPRKGYAHF	soluble
MAHHHHHHMGGFGSKNMEYYNYASMKLLERDKYTNEKEEEEDDQYCKETDIREAVKKAREIRNCNYKESMDLYIKALKMLKKLKENNSRIYRNVLEFEIRPQEIASSAPLNTSLEKNIHMKKEGETNYTCAPPNDNQAISLNNKIASLYNEIADLCCIHDFIEKSLFYYDKACSYNPSKIDYIYKKGVLFQQMNDTERAINTFKIILSAEPNHIPTLFSLGNLYRYIDNHIALSYFEAILKIEPNNTEVLSLIASCYDNLGKLNEAISYQNKAVQIDPDNFNHKKFAQRLIEMKSQN	soluble
MIYLRKLKKEDLMSLWEMAYSQLNPVWKQYDAPYYDDYQYFSNFKEFELQKSESILSNSNRLGIFVDDKLVGTVSRYWVCKETRWMELGIGIYDKKFWNTGIGKVAMLQWIDRTFQDYLELEHLGLTTWSGNIGMMKLAEKLRMKKEAHIPKVRYYQGKYFDSIKYGILREDWEKINDGYYQINGNS	not soluble
MGSDKIHHHHHHMPALCSTVQTLEKLAKDDVSSLALLGRSVMHDNALTSRILRVANSAIYHKGSTQISTVSRAAIVLGFDAVRNICITAQLLSSLLESKNLAPSVYQRLIKLMAKAFQAAMLTRMMLSDYDDDIQEEAFIACLLFHIGESAFWSIGGEFTETLDSQLTECETSADERSLIRETIGTSFSQLTQSIARHWGLGELLIQAVNYPDDPRPEIRSIFLADKLCDTLSVATPDKNDLEKYINQAANFTGLDETEFTLKMQRCTKATHKLAEAYGAKVLIDYLPDPQRIDKLEPYLPEAELPIFEANLNVQLVKLRELTAFAINKADFNQIMQTVLEGILEGVGVDRCGVLLLSPSRKQLQPRIMLGRDAEEMKRQFIIELGDRKGLFPMAMEHKESLWVDSPCAKKWQEQCRELKVQLPESGFLVAPLLVDNKVIGFYYADRGPSERCFAEVDFQAFIHFSQLANVCFTVSLK	not soluble
MKKETKPRVVVIGGGTGLPVILKGLKKKDIHLTAIVTVADDGGSSGKIREQMDVLPPGDIRNVMLALSNVDPRVVDLFQYRFAVDGDLSGHVIGNLILTALSQLNDSYVDAINVLATVLKIRGKVIPATDQPLILNAEMEDGSIVHGESLIPLQGKHINRVYIEPENVKPYPTAVEAVKEADLIVIGPGSLYTSILPNLLLTELADEITASKAPKVYITNILTQIGETDFFSDADHIKVIHEHVGKSFIDKTLINTTTVPKELLFPEDVAQVEHNAKGMEELGVEAIYQDFLSTEDGLVRHAAEKVADALLAMLPNQTNEKELEHHHHHH	soluble
MSLDGIIPVVEKKDFLRWFLKEFTLKKRECSWLLNYLMSDDDLMENVHFVEEAERCPKALIMSTNDVHTVPFCFHKYQQVTMDAEKAFHDIRMNPEEAIYIQLHFSGAKHNPNYIAVLEDNPYVPENEDLIAKQKKLAEAFLERSVQSFEEKELLRRIDEALDARDKETFLTLSQQLQHLRQHSDEGHHHHHH	soluble
SLPIDAVLPALRQALTTRHEAVLEAPPGAGKTTRVPLALLEETWLAGQTILMLEPRRLAARAAAERLASELGEKVGETVGYRIRLESCVGPKTRIEVVTEGILTRCLQDDPALEGVGLLIFDEFHVLPFA	not soluble
SAAGVDGDTAAAAAAGGGVVVVFDFDRTIIEWDSDDWVITKLGASDAFRRLRPTMRWNPLMDRMMVELHAQGRSADDIRDCLKSAPLDAHVLSAITTASALGCDLRVASDANAFFIETVLEHHGVLGCFSEISTNPARVDGNGRLRISPFHDPDDSSPHGCSLCPENMCKGKIIERIQATANGKRHFIYIGDGRGDYCPSLKLGEGDYVMPKEKYPLWNLISSNKQLLKAEVHPWNNGEELEQTLLKLVNKLITPPAQPSQFEYKCDMSNPVSTEVGQALRVPH	soluble
MGSDKIHHHHHHMEEGSAGMGMSQNNSTLVAPQPKGIIDPATGKPVGSNDAYFTEINDELADKGFLVTSTDELITWARTGSLMWMQFGLACCAVEGLMQASGPRYDMERFGVAPRASPRQSDVMIVAGTLTNKMAPALRKVYDQMPEPRYVISMGSCANGGGYYHYSYAVVRGCDRVVPVDIYVPGCPPTAEALLYGVLLLQKKIRRTGTIER	not soluble
MGKKRKHQDSDSEQSGKRVKKVEEARNGVADMTIDESSDFQVFLIKKPIGVSLEDLEALKWSNDEEVLTKTKLKTESGVFRAIVAPKSKKERMVHIPAFREREEADSKNIKAQSFVTGAITILPQEVKPKVLGGFIYEEGEEPVEGSSEVHPGLKKIKKTAILDLESRQQRNKAYGTTTEGDGKPRKLANIIEKMN	soluble
MSNTERTFIAIKPDGVHRGLVGKIIARFEERGYKLVALKQMTASKAHLEVHYQDLKDKPFFPSLIEYMSSGPVVAMVWQGLDVVKQGRSMLGATNPLASAPGTIRGDFCIQTGRNICHGSDAVDSANREIAHWFKQEEINDYASPFINSWVYE	not soluble
SANLPTVLVTGASGRTGQIVYKKLKEGSDKFVAKGLVRSAQGKEKIGGEADVFIGDITDADSINPAFQGIDALVILTSAVPKMKPGFDPTKGGRPEFIFEDGQYPEQVDWIGQKNQIDAAKVAGVKHIVVVGSMGGTNPDHPLNKLGNGNILVWKRKAEQYLADSGTPYTIIRAGGLLDKEGGVRELLVGKDDELLQTDTKTVPRADVAEVCIQALLFEEAKNKAFDLGSKPEGTSTPTKDFKALFSQVTSRF	soluble
MDAQSYMPVPPGVGMEENFFSLDDILLSHERLPCRTESAFPRLGFLEKSSDSRDIPEGTKMEMPLWLAKGLYERKRRVLSVELPKVYREGWRTVFGADPTVVDLYKMGPYYYGLGSQMLHFESPENPEIANTILQTFIGRFRRTMDSSQNAYNEDTSALVERLDYLERSLFKAGQSGLNNFQLWEKGRSSHLTASSLVINYRKRKMTDLQA	not soluble
YNPLNSVEDSTNRRDTVLQNMVAAGYIDKNQETKAAEVDMTSQLHDKYEGKISDYRYPSYFDAVVNEAVSKYNLTEEEIVNNGY	not soluble
MHVLIVDDEPLAREELSYLVSQHPQVTSVAEADSVAEAMEEMMDQKPDLLFLDIHLTDESGFDLAEKLTHLKKAPYLVFATAYDQYALKAFQVNAKDYILKPFEEEKITQVIEKASKEMGQAVPENTAEKGPKSEAIPIQGEDRIYLVAPEDIYLVSVEERQLSIFVDQQVYKMTGTLNSIEQKLPATLFIKTHRSFILNRTKIQEIQPWFNNTLQVILTNGSKVPVSRSYVKEFKEKLGLS	not soluble
MSPIDQVLAAACALDASGKAPSLALIKSRLGNKFPMPILIQGLQQFKSMPKAERERLAALSIPEVEEQKPTEPVPLSVTTLAAQLTELQKGFEQAIALKNTEIMQLTNELIELKQRVNQLELQGKSV	soluble
MSEQTVQVKTTGKILQSPCGPIIHGLEDVLIKSTSISDIDGEKGILWYRGYRIEELARLSTYEEVSYLILYGRLPTKRELEDYINRMKKYRELHPATVEVIRNLAKAHPMFALEAAVAAEGAYDEDNQKLIEALSVGRYKAEEKELAYRIAEKLVAKMPTIVAYHYRFSRGLEVVRPRDDLGHAANFLYMMFGREPDPLASRGIDLYLILHADHEVPASTFAAHVVASTLSDLYSSVAAAIAALKGPLHGGANEMAVRNYLEIGTPAKAKEIVEAATKPGGPKLMGVGHRVYKAYDPRAKIFKEFSRDYVAKFGDPQNLFAIASAIEQEVLSHPYFQQRKLYPNVDFWSGIAFYYMGIPYEYFTPIFAMSRVVGWVAHVLEYWENNRIFRPRACYIGPHDLQYIPLEQR	soluble
MSLKEDYADVRNVMIMGGSRIAVRTAQYVPDYMQVKIVDNDINRCNRLTELLDDKTMIINGDGRDMDLLIEEGLKNTEAFVALTDNSETNILACLAAKRMGVEKTVAEVENIDYIGMAESLDIGTVINKKMIAASHIYQMMLDADVSNVKCLTFANADVAEFTVPAGAKITKNLIKDLGLPKGTTIGGMIRNGEGVLVTGDTLIRPGDHVVVFCLSMMIKKIEKFFNEGHHHHHH	not soluble
AQGRQPRTETLHAERRAAGAWLAKRMGLEDSAPVYFLQRRRWVDERPVLIELIALDAGWCPGLLDHDLDTSLMSLLRERFGLQPTRCQLAMHPTALNAAQAEPLQLAPGSPALYLERLSYAEGQRVVEFDQEFWRPDALEIVLDAAYPGA	soluble
MEQEAERRRQPQIKQEPESEEEEEEKQEKEEKREEPVEEEEEPEQKPCLKPTLRPISSAPSVSSASGNATPNTPGDESPCGIIIPHENSPDQQQPEEHRPKIGLSLKLGASNSPGQPNSVKRKKLPVDSVFNKFEDEDSDDVPRKRKLVPLDYGEDDKNATKGTVNTEEKRKHIKSLIEKIPTAKPELFAYPLDWSIVDSILMERRIRPWINKKIIEYIGEEEATLVDFVCSKVMAHSSPQSILDDVAMVLDEEAEVFIVKMWRLLIYETEAKKIGLVK	soluble
MWDLETDRVLNEIKTRNARKVLFQAPEGLKRAVEKEIEFLKTKIDAELMIWGETCFGACDLCDEEVTILGIDLIIHYGHEELSYVHSEIPVVFVHAYFKENEYFLKDVENILEKMENPTVTTTIQFKKALSKFNPVVILGCRAPVDNAENILFVGTGRFHPLMMAYKLKKTVKIYNPITREISEISDQEIKKLIKLRIGRVSKLLLNPPKKIGVVLSTKKGQCRLKSFENVIELLKKNNIEYIPIILNNLSQSYLFYKVDAYVICACPRIVMDDYQNYESTLLTPEELRMYLSNDFEYKFDEILENNFYLEHHHHHH	not soluble
MSLKKAIAYMRFSSPGQMSGDSLNRQRRLIAEWLKVNSDYYLDTITYEDLGLSAFKGKHAQSGAFSEFLDAIEHGYILPGTTLLVESLDRLSREKVGEAIERLKLILNHGIDVITLCDNTVYNIDSLNEGHHHHHH	not soluble

— the DeepSol protein solubility set
